Results: the supplement of paper PMC6757056
± gives the standard deviation of the averaged measurements.

B1: library; a variant is named by its letters at N, in order (parent)
chain: GCUGUCACCGAGAAACUGUGAAGUAUAUCUUAAACCUGGGCACUUAAAAGAUAUAUGGAGUUAGUAGUGCAACCUGCUCGGUCUGAUGAGUCCNNNNNNGGACGAAACAGC

How the values were obtained:
cyclic di-GMP [1] = variants of: B1; test: FACS-Seq fitted mean relative fluorescence mCherry/BFP without ligand (log10 relative fluorescence); HEK293T; ligand: cyclic di-GMP (c-di-GMP-II aptamer); higher = higher reporter protein expression; conditions: ligand present: no
Protocol: (§1)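 Hammerhead (sTRSV) ribozyme switch libraries with a ligand aptamer grafted on stem I and a randomized N4-6 loop II, cloned into the 3' UTR of mCherry and transiently transfected into HEK293T cells; RNA-Seq 72 h post transfection with ligand added 1 h before transfection; RNA read count / plasmid DNA read count normalized to the non-cleaving sTRSVctl (x100), log10; sequences with >100 DNA reads. FACS-Seq: lentiviral library sorted into 6 bins after 48 h ligand, log-normal fit mean of mCherry/BFP scaled to controls. Printed sequences are partial switch sequences.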

cyclic di-GMP [2] = variants of: B1; test: normalized RNA/DNA level without ligand (relative to sTRSVctl = 100) (log10 (% of sTRSVctl)); HEK293T; ligand: cyclic di-GMP (c-di-GMP-II aptamer); higher = less ribozyme self-cleavage, higher mRNA level; conditions: reporter: mCherry (pCS4076), ligand present: no
Protocol: as §1

cyclic di-GMP [3] = variants of: B1; test: FACS-Seq fitted mean relative fluorescence mCherry/BFP with ligand (log10 relative fluorescence); HEK293T; ligand: cyclic di-GMP (c-di-GMP-II aptamer); ligand concentration (+) FACS-Seq: 1 mM; higher = higher reporter protein expression; conditions: ligand present: yes
Protocol: as §1

cyclic di-GMP [4] = variants of: B1; test: normalized RNA/DNA level with ligand (relative to sTRSVctl = 100) (log10 (% of sTRSVctl)); HEK293T; ligand: cyclic di-GMP (c-di-GMP-II aptamer); ligand concentration (+) RNA-Seq: 1 mM; higher = less ribozyme self-cleavage, higher mRNA level; conditions: reporter: mCherry (pCS4076), ligand present: yes
Protocol: as §1

Variant	FACS-Seq fitted mean (log10) (cyclic di-GMP [1])	normalized RNA/DNA level without ligand (log10) (cyclic di-GMP [2])	FACS-Seq fitted mean (log10) (cyclic di-GMP [3])	normalized RNA/DNA level with ligand (log10) (cyclic di-GMP [4])
UAAAGA	-0.0343 ± 0.1	1.6 ± 0.047	0.167 ± 0.024	1.73 ± 0.12
GAAAUG	-0.4346 ± 0.0037	1.55 ± 0.067	-0.122 ± 0.1	1.71 ± 0.11
GAAAUA	0.098 ± 0.25	1.47 ± 0.079	0.291 ± 0.031	1.65 ± 0.12
GAAAUU	-0.0957 ± 0.14	1.5921 ± 0.00088	0.215 ± 0.096	1.78 ± 0.11
GAACAG	-0.182 ± 0.12	1.753 ± 0.015	0.0981 ± 0.039	1.82 ± 0.094
UAAGUA	-0.292 ± 0.034	1.609 ± 0.0095	-0.0651 ± 0.011	1.78 ± 0.086
UAAGUG	0.0931 ± 0.039	1.61 ± 0.022	0.27 ± 0.01	1.78 ± 0.12
AAAAUC	0.0212 ± 0.1	1.62 ± 0.028	0.2003 ± 0.0016	1.76 ± 0.06
AAAAUG	-0.0352 ± 0.079	1.5 ± 0.05	0.319 ± 0.046	1.7 ± 0.12
AAAAUU	-0.708 ± 0.058	1.62 ± 0.034	-0.4137 ± 0.00058	1.76 ± 0.085
AAACGG	-0.275 ± 0.019	1.5 ± 0.12	0.0867 ± 0.11	1.7 ± 0.1
GAAGUU	-0.118 ± 0.022	1.55 ± 0.072	0.245 ± 0.074	1.7 ± 0.091
UAACUC	-0.459 ± 0.11	1.78 ± 0.016	-0.294 ± 0.11	1.88 ± 0.085
UAACUU	-0.637 ± 0.031	1.65 ± 0.005	-0.458 ± 0.042	1.79 ± 0.12
CAAGAA	-0.432 ± 0.1	1.23 ± 0.12	-0.059 ± 0.057	1.48 ± 0.13
AAAAGA	-0.494 ± 0.013	1.36 ± 0.073	-0.116 ± 0.009	1.56 ± 0.14
AAAAGC	0.0679 ± 0.01	1.58 ± 0.045	0.227 ± 0.045	1.73 ± 0.089

Variant	FACS-Seq fitted mean (log10) (cyclic di-GMP [1])	normalized RNA/DNA level without ligand (log10) (cyclic di-GMP [2])	FACS-Seq fitted mean (log10) (cyclic di-GMP [3])	normalized RNA/DNA level with ligand (log10) (cyclic di-GMP [4])
AAAAGG	-0.489 ± 0.057	1.49 ± 0.12	-0.254 ± 0.005	1.66 ± 0.093
GAAAAU	-0.15 ± 0.048	1.55 ± 0.048	0.162 ± 0.015	1.74 ± 0.1
GAAAAA	-0.369 ± 0.068	1.41 ± 0.1	-0.0537 ± 0.033	1.61 ± 0.12
GAAAAG	-0.45 ± 0.058	1.575 ± 0.0029	-0.228 ± 0.032	1.74 ± 0.14
CAAGUU	-0.164 ± 0.058	1.71 ± 0.027	0.078 ± 0.065	1.86 ± 0.12
CAAGUA	-0.495 ± 0.0052	1.46 ± 0.13	-0.203 ± 0.02	1.63 ± 0.07
UAACGU	-0.388 ± 0.07	1.51 ± 0.095	-0.125 ± 0.05	1.71 ± 0.12
UAACGA	-0.0411 ± 0.064	1.59 ± 0.026	0.272 ± 0.15	1.76 ± 0.089
UAACGG	-0.162 ± 0.15	1.6716 ± 2.5e-05	0.21 ± 0.0062	1.82 ± 0.1
UAACGC	-0.0408 ± 0.21	1.66 ± 0.04	0.122 ± 0.082	1.79 ± 0.17
UAAGGA	-0.894 ± 0.046	1.54 ± 0.1	-0.73 ± 0.051	1.7 ± 0.066
UAAAUA	-0.362 ± 0.037	1.654 ± 0.0031	-0.139 ± 0.088	1.78 ± 0.059
UAAAUG	0.102 ± 0.084	1.62 ± 0.0043	0.384 ± 0.037	1.83 ± 0.12
UAAAUU	0.0621 ± 0.17	1.631 ± 0.016	0.394 ± 0.011	1.77 ± 0.11
GAAGAA	-0.423 ± 0.0092	1.38 ± 0.15	-0.233 ± 0.045	1.59 ± 0.08
GAAGAU	-0.28 ± 0.1	1.5 ± 0.088	0.0337 ± 0.016	1.65 ± 0.14
